The values below come from article PMC6978347 (2020).

For the experiment, the target named is T1, MEKK3^43–127 (MEKK3–PB1) (UniProt Q99759 43-127).
T1 chain: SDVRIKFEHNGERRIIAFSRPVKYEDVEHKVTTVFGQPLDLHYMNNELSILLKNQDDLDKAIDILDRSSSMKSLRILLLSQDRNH
The experiment is described as follows: ITC.

One may read the Kd as the free concentration of one partner at which half of the binding sites on the other are occupied at equilibrium, for simple one-to-one binding. Lower therefore signals higher affinity.

B1: NBR1^1–85 (human NBR1–PB1) (domain or fragment)
chain: MEPQVTLNVTFKNEIQSFLVSDPENTTWADIEAMVKVSFDLNTIQIKYLDEENEEVSINSQGEYEEALKMAVKQGNQLQMQVHEG
For B1, the Kd amounted to 13.3 nM.
